# Assay results as given in article PMC3496615 (Molecular Biology of the Cell, 2012).
# T1: Irc6p (Saccharomyces cerevisiae, UniProt P43615)
# T1 sequence (P43615 1-237): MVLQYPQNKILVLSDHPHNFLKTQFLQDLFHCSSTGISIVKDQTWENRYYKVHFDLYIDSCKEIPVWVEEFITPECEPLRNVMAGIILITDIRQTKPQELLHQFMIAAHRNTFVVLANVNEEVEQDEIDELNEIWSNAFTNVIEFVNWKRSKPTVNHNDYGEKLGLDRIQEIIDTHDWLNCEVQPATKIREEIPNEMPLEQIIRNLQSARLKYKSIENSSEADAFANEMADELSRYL
# T2: FLAG-Irc6p-K22A (yeast (S. cerevisiae), UniProt P43615 1-237, K22A)
# T2 sequence (looked up): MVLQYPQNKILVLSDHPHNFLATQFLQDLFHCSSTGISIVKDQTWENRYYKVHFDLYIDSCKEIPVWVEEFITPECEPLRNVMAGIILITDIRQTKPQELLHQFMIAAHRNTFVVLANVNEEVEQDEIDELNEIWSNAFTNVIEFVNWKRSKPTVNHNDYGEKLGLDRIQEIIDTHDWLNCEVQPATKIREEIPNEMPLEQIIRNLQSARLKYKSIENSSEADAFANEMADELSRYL
# T3: FLAG-tagged Irc6p (recombinant, purified) (yeast (S. cerevisiae), UniProt P43615 1-237)
# T3 sequence (looked up): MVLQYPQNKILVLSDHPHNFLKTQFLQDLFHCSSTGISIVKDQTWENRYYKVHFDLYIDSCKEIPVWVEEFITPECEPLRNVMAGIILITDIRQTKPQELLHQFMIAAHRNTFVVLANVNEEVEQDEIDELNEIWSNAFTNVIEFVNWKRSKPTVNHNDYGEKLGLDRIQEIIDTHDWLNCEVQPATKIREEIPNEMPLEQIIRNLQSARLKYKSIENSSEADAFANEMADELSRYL
# B1: GST-Ypt31p (natural protein, yeast (S. cerevisiae), UniProt P38555 1-223, looked up)
# chain: MSSEDYGYDYDLLFKIVLIGDSGVGKSNLLSRFTKNEFNMDSKSTIGVEFATRTLEIDGKRIKAQIWDTAGQERYRAITSAYYRGAVGALIVYDISKSSSYENCNHWLSELRENADDNVAVGLIGNKSDLAHLRAVPTEESKTFAQENQLLFTETSALNSENVDKAFEELINTIYQKVSKHQMDLGDSSANGNANGASAPNGPTISLTPTPNENKKANGNNCC
# Columns and labels:
# [1] = target: T1, Irc6p; assay: limited proteolysis; format: binding; conditions: pH 8, 10 mM CaCl2, 24°C; indirect evidence
# [2] = target: B1; assay: pull-down
# [3] = target: T2, FLAG-Irc6p-K22A; assay: pull-down
# [4] = target: T3, FLAG-tagged Irc6p (recombinant, …); assay: pull-down
molecule,measurement,setting,value
Nc1nc2c(ncn2[C@@H]2O[C@H](COP(=O)(O)OP(=O)(O)NP(=O)(O)O)[C@@H](O)[C@H]2O)c(=O)[nH]1 [GMPPNP],"limited proteolysis (chymotrypsin), protection",[1],by limited proteolysis was slowed in the presence of GMPPNP (Figure S2B)
"FLAG-Irc6pΔC (Irc6p N-terminal region) (domain or fragment, yeast (S. cerevisiae), UniProt P43615 1-179, looked up) MVLQYPQNKILVLSDHPHNFLKTQFLQDLFHCSSTGISIVKDQTWENRYYKVHFDLYIDSCKEIPVWVEEFITPECEPLRNVMAGIILITDIRQTKPQELLHQFMIAAHRNTFVVLANVNEEVEQDEIDELNEIWSNAFTNVIEFVNWKRSKPTVNHNDYGEKLGLDRIQEIIDTHDWL",binding result,[2],binds
B1,binding result,[3],binds
same,binding result,[4],binds
"FLAG-Irc6pCT (Irc6p C-terminal region) (domain or fragment, yeast (S. cerevisiae), UniProt P43615 179-237, looked up) LNCEVQPATKIREEIPNEMPLEQIIRNLQSARLKYKSIENSSEADAFANEMADELSRYL",binding result,[2],binds
